Experimental data taken from patent US11306331B2, “Processes for the production of hydroxycinnamic acids using polypeptides having tyrosine ammonia lyase activity” (CysBio ApS, priority 2014, dated 2022).

B1: HaXAL2: tyrosine ammonia lyase derived from Herpetosiphon aurantiacus, protein GI 159898927, 552 aa (protein, listed as Herpetosiphon aurantiacus)
chain: MRHQVTLTGAGLTIEDVVRVARHHQPVGLTDNPEILQRIEDSCAYINDAVKASKPVYGVTTGFGGMADVVISSEEAADLQNNAIWYHKTGAGKLLPLADVRAAMLLRANSHMRGVSGIRLEIIQRMMTFLNANVTPHVREFGSIGASGDLVPLISITGALLGTDPAFRVDFDGENIDCLEALERLNLPRLELLPKEGLAMMNGTSVMTGIASNVLHDARILLGLALNIHGLMIQGLQGTNQSFHPFIHQHKAHTGQVWAADHMLQILEGSALSRDELDGRHEYREGDLIQDRYSLRCLPQFLGPIIDGMAYITHHLRVEINSANDNPLINTEAGASYHGGNFLGQYIGVGMDQLRYYMGLMAKHLDVQIALLVSPQFNNGLSASLVGNTDRKVNMGLKGLQISGNSIMPILGFLGNSLADRFPTHAEQFNQNINSQGFGSANLARQTIETLQQYIAIALIFGVQAVDLRTFKRTGHYNAVETLSPMTAKLYSAMREVVGKPISHERPYIWNDNEQALEQHISAIVSDITNDGIIPQAIQETLDSLRSIILFA
B2: RmXALLI: RmXAL expressed from a synthetic gene codon optimized for Lactococcus lactis (SEQ ID NO: 57) (protein)
chain: MAPSVDSIATSVANSLSNGLHAAAAANGGDVHKKTAGAGSLLPTTETTQLDIVERILADAGATDQIKLDGYTLTLGDVVGAARRGRSVKVADSPHIREKIDASVEFLRTQLDNSVYGVTTGFGGSADTRTEDAISLQKALLEHQLCGVLPTSMDGFALGRGLENSLPLEVVRGAMTIRVNSLTRGHSAVRIVVLEALTNFLNHGITPIVPLRGTISASGDLSPLSYIAASITGHPDSKVHVDGKIMSAQEAIALKGLQPVVLGPKEGLGLVNGTAVSASMATLALTDAHVLSLLAQALTALTVEAMVGHAGSFHPFLHDVTRPHPTQIEVARNIRTLLEGSKYAVHHETEVKVKDDEGILRQDRYPLRCSPQWLGPLVSDMIHAHAVLSLEAGQSTTDNPLIDLENKMTHHGGAFMASSVGNTMEKTRLAVALMGKVSFTQLTEMLNAGMNRALPSCLAAEDPSLSYHCKGLDIAAAAYTSELGHLANPVSTHVQPAEMGNQAINSLALISARRTAEANDVLSLLLATHLYCVLQAVDLRAMEFEHTKAFEPMVTELLKQHFGALATAEVEDKVRKSIYKRLQQNNSYDLEQRWHDTFSVATGAVVEALAGQEVSLASLNAWKVACAEKAIALTRSVRDSFWAAPSSSSPALKYLSPRTRVLYSFVREEVGVKARRGDVYLGKQEVTIGTNVSRIYEAIKSGCIAPVLVKMMA
modifications: RmXal coding sequence (codon optimized for Lactococcus lactis)
B3: RtXAL: previously described aromatic amino acid lyase of Rhodosporidium toruloides/Rhodotorula glutinis, protein GI 129593 (protein, UniProt P11544 1-716, looked up)
Phenylalanine/tyrosine …: MAPSLDSISHSFANGVASAKQAVNGASTNLAVAGSHLPTTQVTQVDIVEKMLAAPTDSTLELDGYSLNLGDVVSAARKGRPVRVKDSDEIRSKIDKSVEFLRSQLSMSVYGVTTGFGGSADTRTEDAISLQKALLEHQLCGVLPSSFDSFRLGRGLENSLPLEVVRGAMTIRVNSLTRGHSAVRLVVLEALTNFLNHGITPIVPLRGTISASGDLSPLSYIAAAISGHPDSKVHVVHEGKEKILYAREAMALFNLEPVVLGPKEGLGLVNGTAVSASMATLALHDAHMLSLLSQSLTAMTVEAMVGHAGSFHPFLHDVTRPHPTQIEVAGNIRKLLEGSRFAVHHEEEVKVKDDEGILRQDRYPLRTSPQWLGPLVSDLIHAHAVLTIEAGQSTTDNPLIDVENKTSHHGGNFQAAAVANTMEKTRLGLAQIGKLNFTQLTEMLNAGMNRGLPSCLAAEDPSLSYHCKGLDIAAAAYTSELGHLANPVTTHVQPAEMANQAVNSLALISARRTTESNDVLSLLLATHLYCVLQAIDLRAIEFEFKKQFGPAIVSLIDQHFGSAMTGSNLRDELVEKVNKTLAKRLEQTNSYDLVPRWHDAFSFAAGTVVEVLSSTSLSLAAVNAWKVAAAESAISLTRQVRETFWSAASTSSPALSYLSPRTQILYAFVREELGVKARRGDVFLGKQEVTIGSNVSKIYEAIKSGRINNVLLKMLA

Tests used:
[1] = tested on: E. coli BL21(DE3)pLysS cells; test: Specific production of pHCA and CA by E. coli expressing TAL/PAL enzymes; type: cell-based, Escherichia coli; details: 24 h after supplementation, +/- standard deviation
Method: Plasmids carrying the genes were transformed into electrocompetent E. coli BL21(DE3)pLysS cells (Life Technologies) and selected on LBplates containing 50 ug/mL streptomycin. The strains were grown in M9 minimal media containing glucose as a carbon source, and expression was induced by adding 1 mM IPTG at an optical density at 600 nm of 0.6. After three hours of growth at 30° C. the cultures were supplemented with 2 mM tyrosine, phenylalanine or histidine. After further 24 hours, samples were withdrawn for determination of the optical density at 600 nm and for the isolation of the supernatant.
The concentration of pHCA and CA in the supernatant was quantified by high performance (HPLC) and compared to chemical standards. HPLC was done on a Thermo setup using a HS-F5 column and mobile phases: 5 mM ammonium formate pH 4.0 (A) and acetonitrile (B) at 1.5 mL min-1, using a gradient elution starting at 5% B. From 0.5 min after injection to 7 min, the fraction of B increased linearly from 5% to 60%, and between 9.5 min and 9.6 the fraction of B decreased back to 5%, and remaining there until 12m pHCA and CA were quantified by measuring absorbance at 333 nm and 277 nm, respectively. The production was tested without addition of precursors or the addition of either phenylalanine or tyrosine to the growth medium.
The specific production was calculated as micromolar (μM) concentration per unit of optical density of the culture at 600 nm, and standard deviations were calculated based on triplicate experiments. HaXAL1, HaXAL2 and FjXAL are the most specific enzymes and those that reach the highest yields.

[2] = tested on: Saccharomyces cerevisiae CEN.PK102-5B; test: Specific production of pHCA and CA by S. cerevisiae expressing TAL enzymes; type: cell-based; details: 72 h, 30° C., +/- standard deviation
Excerpt: A number of the previously characterized enzymes were characterized when expressed in Saccharomyces cerevisiae. Genes encoding HaXAL1 and FjXAL were synthesized with codon optimization for S. cerevisiae available by GeneArt (Life Technologies), and were named HaXAL1 Sc and FjXALSc. Genes were amplified using the oligonucleotide (refer to specific name) shown in Table 6, and inserted by uracil-excision into the vector pCfB132 together with the PPGK1 promoter amplified by primers PPGK1_fw and PPGK1_rv (Jensen et al., 2014). The finished plasmids were transformed into Saccharomyces cerevisiae CEN.PK102-5B (MAT a ura3-52 his3Δ1 leu2-3/112 MAL2-8c SUC2) using a standard lithium acetate transformation protocol and selected for on synthetic drop-out media plates lacking uracil.
Cells were grown in SC medium without uracil, and diluted into Delft medium or Feed-In-Time (FIT) medium (m2p-labs) supplemented with leucine and histidine. After 72 h of incubation at 30° C. with shaking, samples were taken for the analysis of optical density at 600 nm and for clarification of the supernatant, which was analyzed by HPLC as described in example 1. The specific production was calculated as micromolar (μM) concentration per unit of optical density of the culture at 600 nm and is shown in Table 4.

[3] = tested on: L. lactis NZ9000ΔldhΔldhB; test: Specific pHCA and CA productivity of L. lactis strains expressing TAL/PAL enzymes in CDM; type: cell-based, Lactococcus lactis; details: CDM
Excerpt: The synthetic RsXALI (protein GI 129592) and RmXALI (protein GI 126464011) genes, codon optimized for Lactococcus lactis (GeneArt), were cloned into the nisin inducible expression vector pNZ8048 (Kuipers et al., 1998) as follows: RsXALI (SEQ ID NO: 56) and RmXALI (SEQ ID NO: 57) genes and the vector were PCR amplified using the primers listed in Table 7, and were assembled in a single-tube isothermal reaction using the Gibson Assembly Master Mix (New England Biolabs). Reaction products were ethanol-precipitated and suspended in double distilled water before transformation into L. lactis by electroporation as described by Holo and Nes (1995). The synthetic genes encoding SeSam8, R_XAL, HaXAL1 and FjXAL described in a previous example above were amplified by PCR using the primer pairs listed in Table 1, digested with specific restriction enzymes, and cloned in-between the NcoI and XbaI restriction sites of pNZ8048. The plasmids were obtained and maintained in L. lactis NZ9000 (Kuipers et al., 1998) and the gene sequences of the different constructs were verified by sequencing.
To assess pHCA production, TAL-expression vectors were transformed into a strain derived from NZ9000, but with deletion of the genes Idh and dhB (NZ9000ΔldhΔldhB). A control strain was also constructed by transformation of NZ9000ΔldhΔldhB with empty expression vector pNZ8048.
For molecular biology procedures, L. lactis strains were cultivated as batch cultures (flasks) without aeration in M17 medium (Difco™, USA) supplemented with 0.5% glucose (w/v) at 30° C. To assess pHCA production, strains were grown as static cultures in chemically defined medium (CDM; Poolman and Konings, 1988) containing 1% glucose (wt/vol) without pH control (initial pH 6.5 or 7.0) and supplemented with 1.7 or 3.7 mM L-tyrosine. Plasmid selection was achieved by addition of 5 μg mL^−1 chloramphenicol to the growth medium. Growth was monitored by measuring OD600. For heterologous expression of cloned tyrosine ammonia lyases, L. lactis strains were grown in CDM and nisin (1.5 μg L^−1) was added at an OD600 of 0.3-0.4. Samples (1 mL) of cultures were collected at different points during growth; centrifuged (16,100×g, 10 min, 4° C.) and the supernatants stored at −20° C. until analysis by HPLC as described in a previous example above. […] The first six columns are results from media containing 1.7 mM tyrosine. The seventh and ninth columns represent samples from strains grown in media containing 3.7 mM tyrosine, and the eighth and ninth columns are data from media with 68.5 mM 3-(N-morpholino)propanesulfonic acid (MOPS) and initial pH adjusted to 7.0 rather than 6.5.

| Molecule | Specific production of CA ([1]; M9 + Phe (2 mM)) [μM OD600-1] | Specific production of pHCA ([1]; M9 + Phe (2 mM)) [μM OD600-1] | Specific production of CA ([1]; M9 + Tyr (2 mM)) [μM OD600-1] | Specific production of pHCA ([1]; M9 + Tyr (2 mM)) [μM OD600-1] | Specific production of CA ([2]; Delft + Tyr (10 mM)) [μM OD600-1] | Specific production of pHCA ([2]; Delft + Tyr (10 mM)) [μM OD600-1] | Specific production of CA ([2]; Delft medium) [μM OD600-1] | Specific production of pHCA ([2]; Delft medium) [μM OD600-1] | Specific production of CA ([2]; FIT + Tyr (10 mM)) [μM OD600-1] | Specific production of pHCA ([2]; FIT + Tyr (10 mM)) [μM OD600-1] | Specific production of CA ([2]; FIT medium) [μM OD600-1] | Specific production of pHCA ([2]; FIT medium) [μM OD600-1] | production of CA [3] |
| --- | --- | --- | --- | --- | --- | --- | --- | --- | --- | --- | --- | --- | --- |
| B1 | 0.4 ± 0.02 | 20 ± 4.4 | 0 ± 0 | 61 ± 9.7 | 0 ± 0 | 20 ± 6.3 | 0 ± 0 | 22 ± 5.2 | 0 ± 0 | 26 ± 11 | 0 ± 0 | 30 ± 16 |  |
| B2 |  |  |  |  |  |  |  |  |  |  |  |  | the only enzyme resulting in production of CA |
| B3 | 180 ± 16 | 7.2 ± 1.3 | 5.9 ± 6.1 | 170 ± 10 | 21 ± 1.9 | 89 ± 13 | 18 ± 0.9 | 20 ± 0.8 | 57 ± 4.1 | 110 ± 8.8 | 88 ± 2 | 67 ± 4.3 |  |
